From US20180362665A1 (KATHOLIEKE UNIVERSITEIT LEUVEN, published 2018)

Target: ovine ADAMTS13 (in sheep plasma) (sheep)
Experiment: cell-based or functional assay

B1: anti-ADAMTS13 monoclonal antibody 17C7 (antibody, V domains shown)
VH: EVQLVESGGDLVKSGGSLKLSCAASGFIFSNYAMSWVRQTPEKRLEWGATITTGGFYTFYSDSVKGRFTISRDNAKNTLYLQMSSLRSEDTAMYYCARHRYDDYYALDYWGQGTSVTVSS
VL: ENVLTQSPAIMSTSPGEKVTMTCNVSSSVSYMRWFQQKSSTSPKLWIYDTSKLASGVPGRFSGSGSGHSYSLTISSMEADDVATYYCFQGNGYPLTFGAGTKLELK
half maximal inhibitory concentration (IC50) of ADAMTS13 activity in ovine plasma, FRETS-VWF71 assay: 2.4 µg/mL
